# B1: CINP, full-length wild type, subunit of the reconstituted 55LCC complex (natural protein, human, UniProt Q9BW66 1-212, looked up)
# chain: MEAKTLGTVTPRKPVLSVSARKIKDNAADWHNLILKWETLNDAGFTTANNIANLKISLLNKDKIELDSSSPASKENEEKVCLEYNEELEKLCEELQATLDGLTKIQVKMEKLSSTTKGICELENYHYGEESKRPPLFHTWPTTHFYEVSHKLLEMYRKELLLKRTVAKELAHTGDPDLTLSYLSMWLHQPYVESDSRLHLESMLLETGHRAL
# B2: C1orf109, full-length wild type, subunit of the reconstituted 55LCC complex (natural protein, human, UniProt Q9NX04 1-203, looked up)
# chain: MTQDRPLLAVQEALKKCFPVVEEQQGLWQSALRDCQPLLSSLSNLAEQLQAAQNLRFEDVPALRAFPDLKERLRRKQLVAGDIVLDKLGERLAILLKVRDMVSSHVERVFQIYEQHADTVGIDAVLQPSAVSPSVADMLEWLQDIERHYRKSYLKRKYLLSSIQWGDLANIQALPKAWDRISKDEHQDLVQDILLNVSFFLEE
# B3: SPATA5, full-length wild type, subunit of the reconstituted 55LCC complex (enzyme, human, UniProt Q8NB90 1-893, looked up)
# chain: MSSKKNRKRLNQSAENGSSLPSAASSCAEARAPSAGSDFAATSGTLTVTNLLEKVDDKIPKTFQNSLIHLGLNTMKSANICIGRPVLLTSLNGKQEVYTAWPMAGFPGGKVGLSEMAQKNVGVRPGDAIQVQPLVGAVLQAEEMDVALSDKDMEINEEELTGCILRKLDGKIVLPGNFLYCTFYGRPYKLQVLRVKGADGMILGGPQSDSDTDAQRMAFEQSSMETSSLELSLQLSQLDLEDTQIPTSRSTPYKPIDDRITNKASDVLLDVTQSPGDGSGLMLEEVTGLKCNFESAREGNEQLTEEERLLKFSIGAKCNTDTFYFISSTTRVNFTEIDKNSKEQDNQFKVTYDMIGGLSSQLKAIREIIELPLKQPELFKSYGIPAPRGVLLYGPPGTGKTMIARAVANEVGAYVSVINGPEIISKFYGETEAKLRQIFAEATLRHPSIIFIDELDALCPKREGAQNEVEKRVVASLLTLMDGIGSEVSEGQVLVLGATNRPHALDAALRRPGRFDKEIEIGVPNAQDRLDILQKLLRRVPHLLTEAELLQLANSAHGYVGADLKVLCNEAGLCALRRILKKQPNLPDVKVAGLVKITLKDFLQAMNDIRPSAMREIAIDVPNVSWSDIGGLESIKLKLEQAVEWPLKHPESFIRMGIQPPKGVLLYGPPGCSKTMIAKALANESGLNFLAIKGPELMNKYVGESERAVRETFRKARAVAPSIIFFDELDALAVERGSSLGAGNVADRVLAQLLTEMDGIEQLKDVTILAATNRPDRIDKALMRPGRIDRIIYVPLPDAATRREIFKLQFHSMPVSNEVDLDELILQTDAYSGAEIVAVCREAALLALEEDIQANLIMKRHFTQALSTVTPRIPESLRRFYEDYQEKSGLHTL
# B4: CINP, untagged, of the purified C1orf109-CINP sub-complex (natural protein, human, UniProt Q9BW66 1-212, looked up)
# chain: B1 chain
# Legend:
# [1] = target: B3; experiment: mass photometry; reconstituted 55LCC, 120 nM final, 25 mM Tris pH 7.5, 400 mM NaCl, with 2 mM ADP or after addition of 5 mM ATPγS (more of the 55LCC peak with ATPγS); settings: both partners purified
# [2] = target: B1; experiment: cryo-EM structure; reconstituted 55LCC incubated with 5 mM ATPγS, 0.01% fluorinated octyl maltoside; AlphaFold 2 models rigid-body fitted into the composite map; settings: both partners purified
# [3] = target: the molecule itself; experiment: as above
# [4] = target: T1, C1orf109, untagged, of the purified C1orf109-CINP sub-complex (human, UniProt Q9NX04 1-203); experiment: native MS; untagged proteins in 500 mM ammonium acetate; 12 μM C1orf109, 20 μM CINP, 20 μM C1orf109-CINP complex; settings: both partners purified
# T1 sequence (looked up): B2 chain
binder,measurement,setting,value
B1,binding result,[1],binds
B2,binding result,[2],binds
B3,binding result,[3],binds
B4,stoichiometry N,[4],1
